Measured values taken from patent US20230416410A1 (ZOETIS SERVICES, published 2023).

T1: CTLA4 Fc bIgG1a (canine; bovine, UniProt Q9XSI1 36-161, limits assumed)
T1 construct: No linker; also called bIgG1a wildtype; CTLA4 Fc bIgG1a wildtype
T1 sequence: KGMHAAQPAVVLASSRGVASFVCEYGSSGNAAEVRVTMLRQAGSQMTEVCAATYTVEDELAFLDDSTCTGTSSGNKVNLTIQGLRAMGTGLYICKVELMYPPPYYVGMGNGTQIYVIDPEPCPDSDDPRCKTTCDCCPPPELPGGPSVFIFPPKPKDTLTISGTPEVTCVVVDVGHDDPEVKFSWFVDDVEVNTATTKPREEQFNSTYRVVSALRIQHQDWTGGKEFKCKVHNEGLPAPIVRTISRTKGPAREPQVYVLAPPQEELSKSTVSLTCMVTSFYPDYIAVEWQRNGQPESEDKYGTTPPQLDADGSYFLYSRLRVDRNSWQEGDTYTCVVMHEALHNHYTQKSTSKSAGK

T2: CTLA4 Fc bIgG1aSAS (canine; bovine, UniProt Q9XSI1 36-161, limits assumed)
T2 construct: No linker
T2 sequence: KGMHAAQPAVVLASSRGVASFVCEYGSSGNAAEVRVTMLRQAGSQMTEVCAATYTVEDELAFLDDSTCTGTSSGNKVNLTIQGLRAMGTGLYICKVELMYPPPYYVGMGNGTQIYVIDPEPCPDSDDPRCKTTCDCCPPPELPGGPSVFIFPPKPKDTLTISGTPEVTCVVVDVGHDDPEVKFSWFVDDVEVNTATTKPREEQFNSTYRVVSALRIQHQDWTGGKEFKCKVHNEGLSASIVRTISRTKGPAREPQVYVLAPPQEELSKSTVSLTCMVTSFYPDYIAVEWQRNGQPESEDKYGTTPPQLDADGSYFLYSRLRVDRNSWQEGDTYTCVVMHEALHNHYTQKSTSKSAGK

T3: CTLA4 Fc bIgG1aWinSAS (canine; bovine, UniProt Q9XSI1 36-161, limits assumed)
T3 construct: No linker
T3 sequence: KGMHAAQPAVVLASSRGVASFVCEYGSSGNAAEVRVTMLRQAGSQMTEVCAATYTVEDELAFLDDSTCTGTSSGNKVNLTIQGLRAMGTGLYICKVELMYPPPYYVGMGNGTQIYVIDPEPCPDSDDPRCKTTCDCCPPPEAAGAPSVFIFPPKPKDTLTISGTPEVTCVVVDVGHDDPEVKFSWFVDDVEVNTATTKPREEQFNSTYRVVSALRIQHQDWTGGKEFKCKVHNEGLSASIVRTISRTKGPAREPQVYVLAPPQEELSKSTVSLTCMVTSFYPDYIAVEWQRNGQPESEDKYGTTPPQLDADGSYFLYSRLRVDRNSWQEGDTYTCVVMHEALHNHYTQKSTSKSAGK

T4: CTLA4 Fc bIgG1aSAP (canine; bovine, UniProt Q9XSI1 36-161, limits assumed)
T4 construct: No linker
T4 sequence: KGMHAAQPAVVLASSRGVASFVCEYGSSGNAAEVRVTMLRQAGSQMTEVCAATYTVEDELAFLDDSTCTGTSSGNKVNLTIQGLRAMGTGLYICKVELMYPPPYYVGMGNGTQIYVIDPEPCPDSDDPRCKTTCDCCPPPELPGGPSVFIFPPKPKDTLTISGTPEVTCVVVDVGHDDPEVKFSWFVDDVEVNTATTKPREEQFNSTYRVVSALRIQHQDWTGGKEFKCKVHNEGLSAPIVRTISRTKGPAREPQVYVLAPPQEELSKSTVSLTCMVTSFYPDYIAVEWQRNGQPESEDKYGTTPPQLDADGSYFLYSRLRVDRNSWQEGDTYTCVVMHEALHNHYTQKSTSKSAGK

T5: CTLA4 Fc bIgG1aWin (canine; bovine, UniProt Q9XSI1 36-161, limits assumed)
T5 construct: No linker
T5 sequence: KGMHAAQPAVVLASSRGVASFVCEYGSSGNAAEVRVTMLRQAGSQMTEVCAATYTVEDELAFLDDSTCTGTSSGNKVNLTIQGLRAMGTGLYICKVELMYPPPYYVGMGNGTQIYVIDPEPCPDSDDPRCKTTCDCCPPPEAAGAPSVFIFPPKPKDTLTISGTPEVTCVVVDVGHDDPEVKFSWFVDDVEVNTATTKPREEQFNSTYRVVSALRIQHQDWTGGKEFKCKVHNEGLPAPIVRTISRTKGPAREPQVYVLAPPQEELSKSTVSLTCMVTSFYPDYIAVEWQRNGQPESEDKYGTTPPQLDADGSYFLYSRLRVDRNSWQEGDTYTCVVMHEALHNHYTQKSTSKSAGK


Experiments:
Experiment in all cases: SPR Biacore, biotinylated receptor on SA sensor, pH 7.4, 15 C
CTLA4 Fc bIgG1a = biological target: T1, CTLA4 Fc bIgG1a
Experimental: (§1) A Biacore SPR binding assay was designed to test the affinity of bovine IgG subclasses to bFcgR1, bFcgR2 and bFcgR3. All reported KD's were measured by Biacore (Cytiva, Marlborough, MA, USA) using series S SA sensor. Biotinylated-bovine FcgR1, R2 and R3 were captured on the sensor surface using a modified SA capture method to reach the desired surface density. 10 mM HEPES, 150 mM NaCl, 3 mM EDTA, 0.05% v/v surfactant P20, pH7.4 buffer was used as the running and titration buffer. Various concentrations of bovine CTLA4-Fc fusions or mAbs were titrated and flowed over the receptor surface and affinities were determined using Biacore T200 Evaluation software (Cytiva, Marlborough, MA, USA) with 1:1 binding model. The method of double referencing has been applied where the reference flow cell was subtracted from the flow cell containing immobilized receptors and blank runs containing buffer only were subtracted out from all runs. Flow cells were regenerated using 10 mM Glycine pH1.5. Runs were performed at 15° C.
(§2) The ability to knock out binding to bovine Fc gamma receptors was evaluated by comparing SPR Biacore bFcgR affinity of bIgG1a and bIgG1b wildtype Fc to the bIgG1a and bIgG1b mutations, described above. All mutations made to bIgG1 are identical for the a and b allotypes. Biacore methods for bFcgR1, R2, and R3 were performed as described in Example 1.

CTLA4 Fc bIgG1aSAS = biological target: T2, CTLA4 Fc bIgG1aSAS
Experimental: as §1, §2

CTLA4 Fc bIgG1aWinSAS = biological target: T3, CTLA4 Fc bIgG1aWinSAS
Experimental: as §1, §2

CTLA4 Fc bIgG1aSAP = biological target: T4, CTLA4 Fc bIgG1aSAP
Experimental: as §1, §2

CTLA4 Fc bIgG1aWin = biological target: T5, CTLA4 Fc bIgG1aWin
Experimental: as §1, §2

| Binder | Kd (CTLA4 Fc bIgG1a) | binding result (CTLA4 Fc bIgG1aSAS) | binding result (CTLA4 Fc bIgG1aWinSAS) | binding result (CTLA4 Fc bIgG1aSAP) | Kd (CTLA4 Fc bIgG1aWin) | binding result (CTLA4 Fc bIgG1aWin) |
| --- | --- | --- | --- | --- | --- | --- |
| recombinant bovine FcgR2 (receptor, biotin on the BAP tag (BirA), also called bFcgR2; bFcgRII) KPDLPKAVVTIQPAWINVLREDHVTLTCQGTSFSAGNLTTWFHNGSSIHTQKQPSYSFRAGSNDSGSYRCQREQTSLSDPVHLDVISDWLLLQTPSLVFQEGEPIMLRCHSWRNQPLNKITFYQDRKSKIFSYQRTNFSIPRANLSHSGQYHCTAFIGKMLHSSQPVNITVQESSSSGPSSMTHHHHHHAGLNDIFEAQKIEWHE | 3.37 nM | no binding | no binding | no binding | 2.79 nM |  |
| recombinant bovine FcgR3 (receptor, biotin on the BAP tag (BirA), also called bFcgR3; bFcgRIII) DTQTADPSKAVVLLDPQWNHVLTNDRVTLKCQGDYPVEDNSTKWWHNGTLISSQTPSYFIADVKVQDSGEYKCQTGLSAPSDPVKLEVHVGWLLLQVAQRVVNVGKPIRLKCHSWKKTPVAKVQYFRNGRGKKYSHGNSDFHIPEAKLEHSGSYFCRGIIGSKNESSESVQITVQAPETLQTVSSFFLPWHQHHHHHHAGLNDIFEAQKIEWHE | 14.3 nM | no binding | no binding | no binding |  | no binding |
